Source: patent US5451522A, “Genes encoding and method of expressing an enzyme: phthalyl amidase” (priority 1994, dated 1995)

What was measured:
[1] = molecular target: phthalyl-L-Asp-L-Phe-OMe (compound XIV)
[2] = molecular target: T1, phthalyl amidase (Xanthobacter agilis, UniProt P0C2Y0); assay: Optimum reaction temperature; assay type: biochemical; settings: substrate III, 50 mM potassium phosphate, pH 8.2
T1 construct: 42-aa signal peptide removed
T1 sequence (P0C2Y0 whole entry, looked up): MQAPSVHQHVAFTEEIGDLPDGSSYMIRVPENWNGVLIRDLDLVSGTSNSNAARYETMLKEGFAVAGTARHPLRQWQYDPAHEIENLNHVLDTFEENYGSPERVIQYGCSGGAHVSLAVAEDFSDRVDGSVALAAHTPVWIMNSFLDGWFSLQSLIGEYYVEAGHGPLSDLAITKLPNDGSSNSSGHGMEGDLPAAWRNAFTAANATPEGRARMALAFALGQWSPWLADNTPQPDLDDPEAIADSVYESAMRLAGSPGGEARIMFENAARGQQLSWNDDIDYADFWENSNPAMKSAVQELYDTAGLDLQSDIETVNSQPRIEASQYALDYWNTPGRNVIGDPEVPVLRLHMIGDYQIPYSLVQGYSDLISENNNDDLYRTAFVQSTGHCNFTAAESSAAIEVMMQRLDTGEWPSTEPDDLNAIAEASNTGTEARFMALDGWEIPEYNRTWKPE
Procedure: Test reactions were carried out similar to Example 5 except that all incubations were performed in 50 mM potassium phosphate buffer at pH 8.2. Solutions of the substrate were pre-incubated for 5 minutes at temperatures between 2° and 60° C. The enzymatic reaction was initiated by the addition of phthalyl amidase and stopped by the addition of 1 ml methanol. Specific activity of the enzyme was determined by monitoring the hydrolysis of III by HPLC as in Example 5.

[3] = molecular target: T1, phthalyl amidase; assay: Optimum salt concentration; assay type: biochemical; settings: 32° C., substrate III
Procedure: Test reactions were carried out similar to Example 6 except that buffer concentrations ranging from 10 to 200 mM at 32° C. were examined. All other conditions and analyses were the same.

[4] = molecular target: T1, phthalyl amidase; assay: Effect of pH on phthalyl amidase activity (substrate III, HPLC); assay type: biochemical; settings: 50 mM potassium phosphate, 32° C.
Procedure: The effect of pH on the reaction rate of the analytical scale purified enzyme was determined using phthalamido carbacephem (III) as substrate. [drawing 5]
A typical reaction mixture consisted of 1 ml total volume and contained 0.1 mM III, 0.1 μM phthalyl amidase in 50 mM potassium phosphate buffer (pH 5.5-9.0) at 32° C. for 20 minutes. The reactions were stopped by the addition of 1 ml methanol. After removal of precipitate by centrifugation, an aliquot of the supernatant fraction (typically 30 μ) was monitored for the beta-lactam nucleus and phthalic acid by HPLC using a Zorbax C8 column (0.46×15 cm; MacMod Analytical Inc., Chadds Ford, Pa.). The two reaction products were eluted by a mobile phase constructed as continuous mixed gradients from (a) 1% ACN (acetonitrile)/0.2% TFA (trifluoroacetic acid) and (b) 80% ACN/0.2% TFA as follows: 1) 0% (b), 3 min; 2) 0-50% (b), 0.5 min; 3) 50-100% (b), 3 min; 4) 100% (b), 2.5 min; 5) 100-0% (b), 0.1 min; and 6) 0% (b), 5 min. At a flow rate of 1.5 ml/min, retention times of the beta-lactam nucleus and phthalic acid, as measured at 254 nm, were 2.3 and 7.2 min, respectively.

[5] = molecular target: T1, phthalyl amidase; assay: Stability of phthalyl amidase (ionic strength, pH, temperature); assay type: physicochemical
Procedure: The stability of phthalyl amidase at pH values ranging from 6-9 was determined as described in Example 5 at 30° C. in both 20 and 200 mM potassium phosphate buffer. […] In 200 mM buffer, the enzyme retained at least 80% of its activity for 100 hours irrespective of the pH of the incubating medium.
The phthalyl amidase enzyme was also tested for stability at varying temperatures. The enzyme was incubated at pH 8.2 in the temperature range of 4°-50° C. for 48 hours in 50 and 200 mM phosphate buffer. […] In 200 mM buffer, 80% of the enzyme activity was retained in temperatures up to 35° C. and 30% of the enzyme activity was retained after 48 hours incubation at 40° C.

B1: phthalyl amidase (mature enzyme, purified from Xanthobacter agilis) (enzyme)
chain: QAPSVHQHVAFTEEIGDLPDGSSYMIRVPENWNGVLIRDLDLVSGTSNSNAARYETMLKEGFAVAGTARHPLRQWQYDPAHEIENLNHVLDTFEENYGSPERVIQYGCSGGAHVSLAVAEDFSDRVDGSVALAAHTPVWIMNSFLDGWFSLQSLIGEYYVEAGHGPLSDLAITKLPNDGSSNSSGHGMEGDLPAAWRNAFTAANATPEGRARMALAFALGQWSPWLADNTPQPDLDDPEAIADSVYESAMRLAGSPGGEARIMFENAARGQQLSWNDDIDYADFWENSNPAMKSAVQELYDTAGLDLQSDIETVNSQPRIEASQYALDYWNTPGRNVIGDPEVPVLRLHMIGDYQIPYSLVQGYSDLISENNNDDLYRTAFVQSTGHCNFTAAESSAAIEVMMQRLDTGEWPSTEPDDLNAIAEASNTGTEARFMALDGWEIPEYNRTWKPE
modifications: N-terminus blocked (attempts to sequence the N-terminus of the purified enzyme failed)
- Relative Activity (hydrolysis of the substrate by HPLC) (relative activity (compound III = 100.0)) [1]: 118

B2: phthalyl amidase: enzyme from Xanthobacter agilis that removes the phthalyl moiety from phthalyl-containing amides (protein)
chain: QAPSVHQHVAFTEEIGDLPDGSSYMIRVPENWNGVLIRDLDLVSGTSNSNAARYETMLKEGFAVAGTARHPLRQWQYDPAHEIENLNHVLDTFEENYGSPERVIQYGCSGGAHVSLAVAEDFSDRVDGSVALAAHTPVWIMNSFLDGWFSLQSLIGEYYVEAGHGPLSDLAITKLPNDGSSNSSGHGMEGDLPAAWRNAFTAANATPEGRARMALAFALGQWSPWLADNTPQPDLDDPEAIADSVYESAMRLAGSPGGEARIMFENAARGQQLSWNDDIDYADFWENSNPAMKSAVQELYDTAGLDLQSDIETVNSQPRIEASQYALDYWNTPGRNVIGDPEVPVLRLHMIGDYQIPYSLVQGYSDLISENNNDDLYRTAFVQSTGHCNFTAAESSAAIEVMMQRLDTGEWPSTEPDDLNAIAEASNTGTEARFMALDGWEIPEYNRTWKPE
- enzyme activity below 10° C. and above 50° C. (in words) [2]: Little enzyme activity
- temperature of maximum reaction rate [2]: 34 °C
- Specific Activity ([3]; K Phosphate buffer 10 mM): 148 μmol/min/μmol enzyme
- Specific Activity ([3]; K Phosphate buffer 50 mM): 300 μmol/min/μmol enzyme
- Specific Activity ([3]; K Phosphate buffer 100 mM): 350 μmol/min/μmol enzyme
- Specific Activity ([3]; K Phosphate buffer 200 mM): 360 μmol/min/μmol enzyme
- Specific Activity ([3]; NH4 Acetate buffer 10 mM): 25 μmol/min/μmol enzyme
- Specific Activity ([3]; NH4 Acetate buffer 50 mM): 50 μmol/min/μmol enzyme
- Specific Activity ([3]; NH4 Acetate buffer 100 mM): 75 μmol/min/μmol enzyme
- Specific Activity ([3]; NH4 Acetate buffer 200 mM): 100 μmol/min/μmol enzyme
- Specific Activity ([3]; Tris-HCl buffer 10 mM): 73 μmol/min/μmol enzyme
- Specific Activity ([3]; Tris-HCl buffer 50 mM): 230 μmol/min/μmol enzyme
- Specific Activity ([3]; Tris-HCl buffer 100 mM): 275 μmol/min/μmol enzyme
- Specific Activity ([3]; Tris-HCl buffer 200 mM): 300 μmol/min/μmol enzyme
- Specific Activity ([4]; pH 7.0, substrate III 0.1 mM): 125.4 μmol/min/μmol enzyme
- Specific Activity ([4]; pH 7.2, substrate III 0.1 mM): 130.4 μmol/min/μmol enzyme
- Specific Activity ([4]; pH 7.4, substrate III 0.1 mM): 155.2 μmol/min/μmol enzyme
- Specific Activity ([4]; pH 7.6, substrate III 0.1 mM): 172.5 μmol/min/μmol enzyme
- Specific Activity ([4]; pH 7.8, substrate III 0.1 mM): 184.2 μmol/min/μmol enzyme
- Specific Activity ([4]; pH 8.0, substrate III 0.1 mM): 195.3 μmol/min/μmol enzyme
- Specific Activity ([4]; pH 8.2, substrate III 0.1 mM): 201.2 μmol/min/μmol enzyme
- Specific Activity ([4]; pH 8.4, substrate III 0.1 mM): 208.0 μmol/min/μmol enzyme
- Specific Activity ([4]; pH 8.6, substrate III 0.1 mM): 181.7 μmol/min/μmol enzyme
- Specific Activity ([4]; pH 8.8, substrate III 0.1 mM): 185.1 μmol/min/μmol enzyme
- Specific Activity ([4]; pH 9.0, substrate III 0.1 mM): 33.1 μmol/min/μmol enzyme
- Optimum ionic strength for stability [5]: ≥ 200 mM
- optimum stability pH [5]: 8.0±0.4
- pH range in which the enzyme is stable [5]: 6-9
- time within which all enzyme activity was lost ([5]; 20 mM potassium phosphate buffer, any pH 6-9, 30° C.): ≤ 2 h
- time within which all enzyme activity was lost ([5]; 50 mM phosphate buffer, pH 8.2, incubation temperature above 40° C.): ≤ 48 h
- enzyme activity retained ([5]; 50 mM phosphate buffer, pH 8.2, temperatures below 25° C., 48 hours): 90%
- enzyme activity retained ([5]; 200 mM phosphate buffer, pH 8.2, 40° C., 48 hours): 30%
- enzyme activity retained ([5]; 200 mM potassium phosphate buffer, pH 6-9, 30° C., 100 hours): at least 80%
- temperature up to which good activity is retained ([5]; high salt (200 mM)): up to 40 °C
- temperature up to which good activity is retained ([5]; low salt (50 mM)): up to 30 °C
